The target of the test is BG505 SOSIP.664. Nature of the test: BLI. Background: BLI is a label-free optical method that tracks binding on a fibre tip over time.

B1: PGT122 Fab (Fab, V domains shown)
VH: QVHLQESGPGLVKPSETLSLTCNVSGTLVRDNYWSWIRQPLGKQPEWIGYVHDSGDTNYNPSLKSRVHLSLDKSKNLVSLRLTGVTAADSAIYYCATTKHGRRIYGVVAFKEWFTYFYMDVWGKGTSVTVSS
VL: APTFVSVAPGQTARITCGEESLGSRSVIWYQQRPGQAPSLIIYNNNDRPSGIPDRFSGSPGSTFGTTATLTITSVEAGDEADYYCHIWDSRRPTNWVFGEGTTLIVL
In turn, B1 displayed a Kd of 34.8 nM and a koff of 0.00085 s⁻¹.

By Kd is commonly meant the free concentration of one partner at which half of the binding sites on the other are occupied at equilibrium, for simple one-to-one binding. Lower therefore signals higher affinity. By koff is commonly meant the rate constant with which the complex falls apart. The low end stands for a long-lived complex, the high end for a short-lived complex.

Source of the values: publication PMC5955915 (2018).
